Literature values as cited in patent US20190345209.

Tested on: BCR-ABL1 zinc finger protein (three-finger ZFP) (synthetic construct)
Details: CITED (ref 50); p122 prints 78 uM, evidently a typo

With “GCAGAAGCC (double strand) [BCR-ABL1 9 bp binding site (in Go92, Go66, Go85 promoters)]” as the sequence, how does the Kd read?
The Kd was 0.078 nM.
